Results published in US20250152729A1 (CANCER RESEARCH TECHNOLOGY, published 2025).

T1: human SEMA4A expressed on cells (UniProt ID Q9H3S1, isoform 1) (human, UniProt Q9H3S1 33-761)
T1 construct: Cell-surface SEMA4A: endogenous on MM.1S, NCI-H929 and Karpas-25 cells, or expi293 cells transfected with Origene SC323738; also called human Semaphorin4A; SEMA4A endogenously expressed on MM.1S cells
T1 sequence: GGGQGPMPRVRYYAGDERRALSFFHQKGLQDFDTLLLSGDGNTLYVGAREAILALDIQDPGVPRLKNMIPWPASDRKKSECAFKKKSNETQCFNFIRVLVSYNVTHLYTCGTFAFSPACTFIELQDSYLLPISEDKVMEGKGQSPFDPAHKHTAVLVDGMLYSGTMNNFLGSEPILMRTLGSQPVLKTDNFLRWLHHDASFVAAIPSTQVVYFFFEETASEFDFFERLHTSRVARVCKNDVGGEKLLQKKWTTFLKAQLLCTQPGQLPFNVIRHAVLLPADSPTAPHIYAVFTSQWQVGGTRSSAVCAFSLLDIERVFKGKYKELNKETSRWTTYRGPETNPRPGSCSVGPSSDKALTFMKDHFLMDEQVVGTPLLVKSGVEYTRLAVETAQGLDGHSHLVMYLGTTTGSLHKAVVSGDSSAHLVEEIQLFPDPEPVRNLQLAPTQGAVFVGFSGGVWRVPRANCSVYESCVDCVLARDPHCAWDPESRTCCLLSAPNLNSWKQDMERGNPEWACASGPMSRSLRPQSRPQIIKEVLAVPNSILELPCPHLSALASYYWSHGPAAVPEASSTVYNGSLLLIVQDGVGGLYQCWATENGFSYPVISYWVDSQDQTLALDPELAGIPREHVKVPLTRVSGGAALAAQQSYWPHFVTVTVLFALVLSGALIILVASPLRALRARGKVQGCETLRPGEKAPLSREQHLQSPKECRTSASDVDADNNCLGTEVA

T2: human SEMA4B expressed on expi293 cells (human, UniProt Q9NPR2 44-837)
T2 construct: whole, on cells
T2 sequence (looked up): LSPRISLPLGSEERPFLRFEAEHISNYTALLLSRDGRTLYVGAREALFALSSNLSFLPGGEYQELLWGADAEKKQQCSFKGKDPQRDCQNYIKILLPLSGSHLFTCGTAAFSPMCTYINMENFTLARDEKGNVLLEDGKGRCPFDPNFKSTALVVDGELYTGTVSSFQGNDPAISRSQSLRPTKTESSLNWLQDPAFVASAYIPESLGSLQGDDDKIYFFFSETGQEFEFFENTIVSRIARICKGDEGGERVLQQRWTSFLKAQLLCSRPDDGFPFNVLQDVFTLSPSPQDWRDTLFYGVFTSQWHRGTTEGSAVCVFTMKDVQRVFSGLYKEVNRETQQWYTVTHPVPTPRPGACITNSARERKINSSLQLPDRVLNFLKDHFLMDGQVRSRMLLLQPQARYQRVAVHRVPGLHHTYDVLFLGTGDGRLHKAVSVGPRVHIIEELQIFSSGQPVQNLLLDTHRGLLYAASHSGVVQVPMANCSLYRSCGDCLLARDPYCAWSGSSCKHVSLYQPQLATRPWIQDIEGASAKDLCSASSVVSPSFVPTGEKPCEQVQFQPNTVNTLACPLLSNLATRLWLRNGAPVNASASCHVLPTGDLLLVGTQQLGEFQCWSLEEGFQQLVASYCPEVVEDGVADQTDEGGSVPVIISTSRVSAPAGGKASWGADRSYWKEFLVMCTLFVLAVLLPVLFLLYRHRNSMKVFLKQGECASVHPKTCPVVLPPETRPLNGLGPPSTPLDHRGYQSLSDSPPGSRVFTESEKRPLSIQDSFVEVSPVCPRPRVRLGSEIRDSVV


Columns and labels:
[1] = biological target: T1, human SEMA4A expressed on cells …; assay: flow cytometry on NCI-H929 cells endogenously expressing human SEMA4A, 10-point titration
Experimental: Binding of SEMA4A specific IgGs to membrane-bound SEMA4A was evaluated using flow cytometry in NCI-H929 cells that endogenously express human SEMA4A. Binding assays were performed by incubating the anti-SEMA4A antibodies with 200,000 cells for 3 hours at 4° C. followed by two washes with PBS, 1% (w/v) BSA (FACS buffer). A range of antibody concentrations were evaluated using a 10-point, 3-fold dilution series. Cells were then incubated with Alexa Fluor 647 conjugated AffiniPure Fab Fragment Goat Anti-Human IgG (H+L) (Jackson Immunoresearch Europe Limited, Ely, Cambridgeshire) diluted 1:100, at 4° C. for 1 hour, followed by two washes in FACS buffer. Cells were then stained with LIVE/DEAD™ Fixable Violet Dead Cell Stain (Life Technologies, L34955) for 30 minutes at 4° C., followed by two washes in FACS buffer. Cells were then fixed using BD Cell Fix (BD Biosciences, 340181). Fluorescence of live, single cells was measured using a Novocyte™ 3000 flow cytometer and Novoexpress software (Acea Biosciences, Inc, San Diego, CA). Data were analysed using FlowJo software (FlowJo, LLC, Ashland, OR). Mean fluorescence intensity values were plotted against antibody conjugate concentrations and KD values determined using Prism software (GraphPad Software Inc, La Jolla, CA).

[2] = biological target: T1, human SEMA4A expressed on cells …; assay: cell-based or functional assay
[3] = biological target: T2, human SEMA4B expressed on expi293 cells; assay: Mirrorball direct binding, dilution series on expi293 cells transiently transfected with human SEMA4B, anti-human Alexa Fluor 647
Experimental: To determine the specificity profile of each purified human Alya IgG1 conjugated to McMMAF, a dilution series was tested for binding to human SEMA4A, human SEMA4B and mock transfected cells (transient transfections set up in expi 293 cells.) The three assays employed methods described in section 2.3, using the appropriate cells and substituting the un-purified scFv periplasmic preparation with the human Alya IgG1 conjugated to McMMAF. Data was analysed as Count x median mean intensity (x FLU).

[4] = biological target: T1, human SEMA4A expressed on cells …; assay: cell-based or functional assay; remark: listed apart in the source

Binder	Kd [1]	Average MM1.S IC50 [pM], cell kill [2]	Average NCI-H929 IC50 [pM], cell kill [2]	binding result [3]	EC50 (nM), Fab-pHast internalisation into NCI-H929 [4]	Fold-Change at 6 hours (10 nM), Fab-pHast internalisation [4]
C0120906 human Alya IgG1 conjugated to McMMAF (antibody, V domains shown, McMMAF on the engineered cysteines 239iCys and S442C (EU numbering) of the heavy constant region, Antibody-drug conjugate; human IgG1 Alya constant; also called C0120906-McMMAF) VH: EVQLVQSGPEVKKPGASVKISCKASGYKLNDPGVHGVSWVRQAPGQGLEWMGWISTLNGDTRYAQKFQGRVTMATDSSTSTIYMDLRSLKSDDTALYYCARDDYTAIFDFWGRGTLVTVSS VL: QSVLTQPPSVSVAPGQTASITCGGSNIGSQSVHWYQQKPGQAPVLVVYDDSDRPSGIPERFSGSKSGNTASLILSRVEAGDEADYYCQVWDSSTDHHVFGTGTKVTVL	9.67 nM	4.7 pM	3 pM	no binding (tested: log (M) -8 (1e-8 M))	4.1 nM	116 fold
C0120903 human Alya IgG1 conjugated to McMMAF (antibody, V domains shown, McMMAF on the engineered cysteines 239iCys and S442C (EU numbering) of the heavy constant region, Antibody-drug conjugate; human IgG1 Alya constant; also called C0120903-McMMAF) VH: EVQLVQSGAEVKKPGSSMKVSCKASGGTFNSYTINWVRQAPGQGLEWVGGFIPIFGTADYAQKFHGRVAITADESMSTAYMELSSLRSEDTAVYYCARAPLGSEPFDYWGQGTMVTVSS VL: SYVLTQPPSVSVAPGQTARITCGGNNIGSKSVHWYQQKPGQAPVLVVYDDSDRPSGIPERFSGSNSGNTATLTISRVEAGDEADYYCQVWDSSSDHLVFGGGTKLTVL	9.88 nM	8.8 pM	7.1 pM	no binding (tested: log (M) -8 (1e-8 M))	0.98 nM	118 fold
C0120917 human Alya IgG1 conjugated to McMMAF (antibody, V domains shown, McMMAF on the engineered cysteines 239iCys and S442C (EU numbering) of the heavy constant region, Antibody-drug conjugate; human IgG1 Alya constant; also called C0120917-McMMAF) VH: not shown VL: NFMLTQPHSVSESPGKTVTISCTASGDTLDNKYVNWYQVRPGSAPATLIFHYEERDSGVPDRFSGSFDASSNSASLTISGLQTADEADYFCQSYDSKRDNLVVFGGGTKVTVL	40.5 nM	10.9 pM	18.1 pM	no binding (tested: log (M) -8 (1e-8 M))	8.29 nM	53 fold
C0120905 human Alya IgG1 conjugated to McMMAF (antibody, V domains shown, McMMAF on the engineered cysteines 239iCys and S442C (EU numbering) of the heavy constant region, Antibody-drug conjugate; human IgG1 Alya constant; also called C0120905-McMMAF) VH: not shown VL: NFMLTQPHSVSESPGKTVTISCTGSGGNIVDNFVQWHQQRPGSAPRTVIYEDDQRPSGVPDRFSASVDSSSNSGTLSISGLKTEDEADYYCQSYDGANRWVFGGGTKLTVL	34.3 nM	63.5 pM	90.8 pM	no binding (tested: log (M) -8 (1e-8 M))	3.72 nM	91 fold
C0120914 human Alya IgG1 conjugated to McMMAF (antibody, V domains shown, McMMAF on the engineered cysteines 239iCys and S442C (EU numbering) of the heavy constant region, Antibody-drug conjugate; human IgG1 Alya constant; also called C0120914-McMMAF) VH: QVQLQESGPGLVKPSETLSLTCTVSGGSVSSGRYDWSWIRQPPGKGLEWIGHIYYTGITDYNPSLRSRVTISADKPKNQFSLKLNSVTAADTAVYYCARGPFFDPWGQGTMVTVSS VL: QSVLTQPPSVSVAPGQTASLTCGANNIGSKSVQWYQQKPGQAPVLVVYDGSDRPSGIPDRFSGSSSENTATLTISRVEAGDEADYYCQLWDSVTDRPVFGGGTKVTVL	9.04 nM	1.1 pM	2.5 pM	no binding (tested: log (M) -8 (1e-8 M))	3.29 nM	112 fold
